We go through one substance from paper PMC9723642.

Experiment in all cases: EMSA
Conditions in all cases: EMSA: 10 mM Tris-HCl pH 7.5, 1 mM EDTA, 100 mM KCl, 0.1 mM DTT, 5% glycerol, 0.01 mg/mL BSA, 20 nM RNA, room temperature, 1 h; pull-down: RNA folded in 100 mM …
A general note: A gel shift assay detects complexes by their altered migration in electrophoresis.

The test system of data set [1] is RGG peptide (Homo sapiens).
The test system of data set [2] is recombinant NCL (Homo sapiens).
In data set [3] the test system is RGG* methylated peptide (Homo sapiens).
Data set [4] deals with NCL* (PRMT1-methylated recombinant NCL) (Homo sapiens).

In the case of EBNA1, the Kd – broadly, a measure of binding affinity in units of concentration – in data set [1] was 0.154 nM; in data set [2], 306 nM; in data set [3], 0.107 nM; in data set [4], 202 nM.
